Experimental data as given in PMC12485133.

Experiments:
[1] = target: N-myristoylated human Arf1 bound to GTPγS, anchored on nanodiscs (myrArf1·GTPγS) (human) (UniProt P84077)
[2] = target: N-myristoylated human Arf1 bound to GTPγS, anchored on nanodiscs (myrArf1·GTPγS) (human) (UniProt P84077); test: not stated; binding of PH variants and Arf variants compared with wild type (Fig. SI8 and Table SI1); the method is not given

Sequence of N-myristoylated human Arf1 bound to GTPγS, anchored on nanodiscs (myrArf1·GTPγS) (human) (P84077 whole entry): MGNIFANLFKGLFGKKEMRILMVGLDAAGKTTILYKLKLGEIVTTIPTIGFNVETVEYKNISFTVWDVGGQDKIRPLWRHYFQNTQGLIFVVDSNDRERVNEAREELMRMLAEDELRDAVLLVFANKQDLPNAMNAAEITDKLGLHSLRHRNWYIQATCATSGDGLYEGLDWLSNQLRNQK

fold decrease in GAP activity compared with wild type (C50 of PZA, Fig. 7C) [1]: 100 fold
fold reduction of binding against wild type [2]: 2 fold
Substance: ASAP1 PH domain Lys391Ala (from UniProt Q9QWY8 325-451) (domain or fragment)
